From US20200239578A1 (Eli Lilly, published 2020)

T1: mouse BTLA on splenocytes of C57BL6 mice (mouse (C57BL6), UniProt Q7TSA3 30-306)
T1 construct: Endogenous BTLA on primary cells; also called mouse BTLA-expressing cells
T1 sequence: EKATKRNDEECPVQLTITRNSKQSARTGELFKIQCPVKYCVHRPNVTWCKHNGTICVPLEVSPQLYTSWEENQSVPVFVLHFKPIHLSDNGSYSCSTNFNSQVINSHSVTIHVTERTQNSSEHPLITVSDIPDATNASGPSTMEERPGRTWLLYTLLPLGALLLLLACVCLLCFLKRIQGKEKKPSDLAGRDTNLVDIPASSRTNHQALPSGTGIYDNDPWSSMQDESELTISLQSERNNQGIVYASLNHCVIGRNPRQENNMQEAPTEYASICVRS

T2: cynomolgus monkey BTLA on cyno PBMCs (cynomolgus monkey, UniProt Q7Z6A9 31-289 (human entry))
T2 construct: Endogenous BTLA on primary cells; also called cynomolgus monkey BTLA-expressing cells
T2 chain: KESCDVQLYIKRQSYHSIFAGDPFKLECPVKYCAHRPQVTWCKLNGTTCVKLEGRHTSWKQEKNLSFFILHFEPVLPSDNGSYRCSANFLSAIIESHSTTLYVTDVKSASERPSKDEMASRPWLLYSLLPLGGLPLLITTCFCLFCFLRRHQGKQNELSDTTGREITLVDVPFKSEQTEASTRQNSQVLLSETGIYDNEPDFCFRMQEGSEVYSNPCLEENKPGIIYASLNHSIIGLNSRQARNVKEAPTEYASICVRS

T3: murine (C57BL6) BTLA protein (immobilised on the Biacore chip) (mouse (C57BL6), UniProt Q7TSA3 30-183, limits assumed)
T3 construct: also called Mouse C57BL6 BTLA
T3 chain: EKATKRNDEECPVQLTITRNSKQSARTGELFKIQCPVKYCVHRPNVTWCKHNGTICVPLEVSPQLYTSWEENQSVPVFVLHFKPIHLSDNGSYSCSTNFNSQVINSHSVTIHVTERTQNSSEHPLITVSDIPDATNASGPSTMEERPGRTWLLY

T4: human BTLA protein (immobilised on the Biacore chip) (human, UniProt Q7Z6A9 31-150, limits assumed)
T4 construct: also called B and T Lymphocyte Attenuator; CD272
T4 sequence: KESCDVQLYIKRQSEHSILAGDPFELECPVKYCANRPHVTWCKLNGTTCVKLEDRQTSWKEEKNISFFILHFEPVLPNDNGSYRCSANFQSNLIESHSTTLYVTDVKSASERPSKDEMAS

T5: rat BTLA protein (immobilised on the Biacore chip) (rat, UniProt Q6PNM1 30-183, limits assumed)
T5 sequence (looked up): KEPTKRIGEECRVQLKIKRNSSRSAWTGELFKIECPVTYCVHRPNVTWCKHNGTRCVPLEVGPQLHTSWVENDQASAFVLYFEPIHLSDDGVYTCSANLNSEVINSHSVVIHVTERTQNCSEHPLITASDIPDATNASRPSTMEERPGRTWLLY

T6: cynomolgus monkey BTLA protein (immobilised on the Biacore chip) (cynomolgus monkey, limits assumed)
T6 construct: also called Cyno BTLA
T6 chain: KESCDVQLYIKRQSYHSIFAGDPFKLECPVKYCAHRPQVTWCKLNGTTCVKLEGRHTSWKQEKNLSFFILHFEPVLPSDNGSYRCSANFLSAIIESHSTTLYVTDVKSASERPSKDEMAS

T7: murine (Balbc) BTLA protein (immobilised on the Biacore chip) (mouse (Balbc), UniProt Q7TSA3 30-183, limits assumed)
T7 construct: also called Mouse Balbc BTLA
T7 chain: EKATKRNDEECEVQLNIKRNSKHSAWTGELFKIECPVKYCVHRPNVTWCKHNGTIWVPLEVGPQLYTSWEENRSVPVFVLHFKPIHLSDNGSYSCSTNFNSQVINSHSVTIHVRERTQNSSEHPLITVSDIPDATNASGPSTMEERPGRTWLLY


Key:
[1] = target: T1, mouse BTLA on splenocytes of C57BL6 mice; test: flow cytometry (FACS) on primary cells
Protocol: (§1) Isolated primary cells are quantified using a Countess cell counter, and resuspended at 2×10⁶ cells per ml in FACS buffer. Flow cytometry experiments is performed the same day as cell isolation by plating 50 μl (˜0.1×10⁶) cells into a 96 well plate (Greiner #650101). Non-specific antibody binding is prevented by adding 1 μl Fc block (for example, from BD #553142) for 15 minutes at 4 ° C. without washing.
(§2) BTLA antibody binding is tested at various concentrations, by serial dilution in FACS buffer. For example, a purified antibody and controls starting at different concentrations are first diluted to 30 μg/mL and serial 1:3 dilutions of the starting material is performed for a total of 10 titrations (plus untreated control). Antibody titrations are incubated with cells for 20 minutes at 4° C., and washed with FACS buffer prior to stain. Cells are stained using fluorochrome-conjugated antibodies to identify specific cell types (eg. CD19 B cells, CD4 T cells or CD8 T cells) or using a secondary antibody to identify the presence or absence of antibody binding to that subset. Staining is performed for 20 minutes at 4° C. and washed 3 times with FACS buffer prior to analysis on a flow cytometer. Results are analyzed using standard FACS analysis software (eg. FACSDiva) and reported as mean fluorescent intensity of the secondary antibody for each titration. A positive result, which indicates binding, is determined by mean fluorescent intensity staining above background.

[2] = target: T2, cynomolgus monkey BTLA on cyno PBMCs; test: flow cytometry (FACS) on primary cells
Protocol: as §1, §2

[3] = target: human BTLA on human cells (PBMCs, Ramos.2G6.4C10 B cell line, primary B cells) (human, UniProt Q7Z6A9 31-289); test: cell-based or functional assay
[4] = target: T3, murine (C57BL6) BTLA protein …; test: SPR (Biacore 3000), BTLA amine-coupled to the chip, antibody flowed, 25 C, 1:1 Langmuir fit
Protocol: (§3) The binding affinity and kinetics of the BTLA agonist antibodies of the present invention (22B3, 23C8, and 25F7) to BTLA are measured by surface plasmon resonance using Biacore® 3000 (GE Healthcare). […] The experiments are carried out at 25° C. in HBS-EP buffer (GE Healthcare BR100669; 10 mM HEPES, 150 mM NaCl, 3 mM EDTA, 0.05% surfactant P20, pH 7.4). For each cycle, 250 μL antibody sample is flowed through flow cell 1 and 2 at 50 μ1/min, and then dissociated for 10 minutes. The chip surface is regenerated with 5 μL injection of glycine buffer at pH 1.5 at […] flow rate. The data are fit to a 1:1 Langmiur binding model to derive kₒₙ, k_{off,} and to calculate KD. Data shown below are the average of three experiments for human, cyno, rat and murine for 22B3.

[5] = target: T4, human BTLA protein (immobilised on the …); test: as above
Protocol: as §3

[6] = target: T5, rat BTLA protein (immobilised on the …); test: as above
Protocol: as §3

[7] = target: T6, cynomolgus monkey BTLA protein …; test: as above
Protocol: as §3

[8] = target: T7, murine (Balbc) BTLA protein …; test: as above
Protocol: as §3

[9] = target: T3, murine (C57BL6) BTLA protein …; test: SPR (Biacore 3000), BTLA amine-coupled to the chip, antibody flowed
Protocol: as §3

[10] = target: T7, murine (Balbc) BTLA protein …; test: as above
Protocol: as §3

Row | binding result [1] | binding result [2] | IC50 of inhibition of human primary B cell proliferation ([3H]-thymidine) [3] [nM] | fold increase in tyrosine phosphorylation of BTLA over background compared to negative control (Ramos B cell line, MSD) [3] [fold] | Kd [4] [nM] | koff [4] [s⁻¹] | kon [4] [M⁻¹ s⁻¹] | Kd [5] [nM] | koff [5] [s⁻¹] | kon [5] [M⁻¹ s⁻¹] | Kd [7] [nM] | koff [7] [s⁻¹] | kon [7] [M⁻¹ s⁻¹] | Binder | other results
1 | binds | binds | 0.17 | 1.47 | 4.63 | 0.00035 | 77000 | 206 | 0.0142 | 68600 | – | – | – | Antibody 25F7 (antibody, human IgG4 S228P, kappa, F234A L235A, V domains shown, also called BTLA agonist antibody 25F7) VH: QVQLVQSGAEVKKPGASVKVSCKASGFSLSTYAMNWVRQAPGQGLEWMGIISDDGTTYYATWAKGRVTMTRDTSTSTVYMELSSLRSEDTAVYYCARDAGAGGVQDYLTLWGQGTLVTVSS VL: DIVMTQSPDSLAVSLGERATINCQASENIYNFLAWYQQKPGQPPKLLIYSASTLASGVPDRFSGSGSGTDFTLTISSLQAEDVAVYYCQQGSSNSNIDNPFGGGTKVEIKR | –
2 | binds | binds | 0.32 | 2.41 | 147 | 0.265 | 1.89e+06 | 0.365 | 0.00219 | 5.87e+06 | 0.27 | 0.000647 | 2.45e+06 | Antibody 22B3 (antibody, human IgG4 S228P, kappa, F234A L235A, V domains shown, also called humanized 22B3; BTLA agonist antibody 22B3) VH: QVQLVQSGAEVKKPGASVKVSCKASGFSLSSYGVSWVRQAPGQGLEWMGAISYDGITYYASWAKSRVTMTRDTSTSTVYMELSSLRSEDTAVYYCARGDYYDDYVYVYALDIWGQGTLVTVSS VL: EIVLTQSPGTLSLSPGERATLSCQASQSISTALAWYQQKPGQAPRLLIYAASTLASGIPDRFSGSGSGTDFTLTISRLEPEDFAVYYCQQGYSSSNLDNVFGGGTKVEIKR | IC50 of inhibition of human primary B cell proliferation ([3H]-thymidine), similar experiment beside Mab8D5 [3]: 0.32 nM; Kd [6]: 24.1 nM; koff [6]: 0.0462 s⁻¹; kon [6]: 2.1e+06 M⁻¹ s⁻¹; Kd [8]: 32.5 nM; koff [8]: 0.0858 s⁻¹; kon [8]: 2.6e+06 M⁻¹ s⁻¹
3 | – | binds | 0.14 | – | – | – | – | 1.93 | 0.000293 | 159000 | 35.4 | 0.00309 | 87100 | Antibody 23C8 (antibody, human IgG4 S228P, kappa, F234A L235A, V domains shown, also called BTLA agonist antibody 23C8) VH: EVQLVESGGGLVQPGGSLRLSCAASGFDISKYNIQWVRQAPGKGLEWVGFINYGGSAYYASRAKGRFTISRDDSKNSLYLQMNSLKTEDTAVYYCARGLSNSDLWGQGTLVTVSS VL: DIQMTQSPSSLSASVGDRVTITCQASQSISSWLSWYQQKPGKAPKLLIYRASTLASGVPSRFSGSGSGTDFTFTISSLQPEDIATYYCQSTYGGVVGSTSDDNPFGGGTKVEIKR | binding result [9]: no binding; binding result [10]: no binding
